These are literature values, as cited in article PMC4303689.

For the data set, the target named is His50 (UniProt position 50, KEGVVHGVATV). The experiment in a line: NMR. The settings on record: not stated (the range of values reflects different ionic strengths); free monomeric alpha-synuclein (inferred from context).

For alpha-synuclein (Homo sapiens), the pKa is 6.5–6.8.
